Data as given in patent US20140087995A1 (published 2014).
Changes are numbered by the printed parent chain. Numbered stars: 1 amine (or outer) side, 2 acyl side, 3 side chain; on linkers, the order of the positions; unused ones are H or OH. Bridge positions count the residues as written; N and C are the ends. Side chains are listed from the residue outwards. Ends that are not written are not given here. * marks the point of attachment. C20 diacid = O=C(O)CCCCCCCCCCCCCCCCCCC(=O)*; γGlu = O=C(O)[C@H](CCC(=O)[*:2])N[*:1]

B1: N^ε1-[(4S)-4-carboxy-4-(19-carboxynonadecanoylamino)butanoyl]-[Arg17,Pro21,Pro27]-h-amylin (peptide)
peptide: K([γGlu-C20 diacid])CNTATCATQRLANFLRHSSPNFGAIPSSTNVGSNTY-NH2
modifications: disulfide 2-7; N-terminus assumed
SMILES: CC[C@H](C)[C@H](NC(=O)[C@H](C)NC(=O)CNC(=O)[C@H](Cc1ccccc1)NC(=O)[C@H](CC(N)=O)NC(=O)[C@@H]1CCCN1C(=O)[C@H](CO)NC(=O)[C@H](CO)NC(=O)[C@H](Cc1c[nH]cn1)NC(=O)[C@H](CCCNC(=N)N)NC(=O)[C@H](CC(C)C)NC(=O)[C@H](Cc1ccccc1)NC(=O)[C@H](CC(N)=O)NC(=O)[C@H](C)NC(=O)[C@H](CC(C)C)NC(=O)[C@H](CCCNC(=N)N)NC(=O)[C@H](CCC(N)=O)NC(=O)[C@@H](NC(=O)[C@H](C)NC(=O)[C@@H]1CSSC[C@H](NC(=O)[C@@H](N)CCCCNC(=O)CC[C@H](NC(=O)CCCCCCCCCCCCCCCCCCC(=O)O)C(=O)O)C(=O)N[C@@H](CC(N)=O)C(=O)N[C@@H]([C@@H](C)O)C(=O)N[C@@H](C)C(=O)N[C@@H]([C@@H](C)O)C(=O)N1)[C@@H](C)O)C(=O)N1CCC[C@H]1C(=O)N[C@@H](CO)C(=O)N[C@@H](CO)C(=O)N[C@H](C(=O)N[C@@H](CC(N)=O)C(=O)N[C@H](C(=O)NCC(=O)N[C@@H](CO)C(=O)N[C@@H](CC(N)=O)C(=O)N[C@H](C(=O)N[C@@H](Cc1ccc(O)cc1)C(N)=O)[C@@H](C)O)C(C)C)[C@@H](C)O
notes: also called compound 48
B2: N^α1 N^α1-[(4S)-4-carboxy-4-[[(4S)-4-carboxy-4-(19-carboxynonadecanoylamino)butanoyl]amino]butanoyl]-[Glu14,Arg17,Pro21,Pro27]-h-amylin (peptide)
peptide: {C20 diacid-γGlu-γGlu}-KCNTATCATQRLAEFLRHSSPNFGAIPSSTNVGSNTY-NH2
modifications: disulfide 2-7
SMILES: CC[C@H](C)[C@H](NC(=O)[C@H](C)NC(=O)CNC(=O)[C@H](Cc1ccccc1)NC(=O)[C@H](CC(N)=O)NC(=O)[C@@H]1CCCN1C(=O)[C@H](CO)NC(=O)[C@H](CO)NC(=O)[C@H](Cc1c[nH]cn1)NC(=O)[C@H](CCCNC(=N)N)NC(=O)[C@H](CC(C)C)NC(=O)[C@H](Cc1ccccc1)NC(=O)[C@H](CCC(=O)O)NC(=O)[C@H](C)NC(=O)[C@H](CC(C)C)NC(=O)[C@H](CCCNC(=N)N)NC(=O)[C@H](CCC(N)=O)NC(=O)[C@@H](NC(=O)[C@H](C)NC(=O)[C@@H]1CSSC[C@H](NC(=O)[C@H](CCCCN)NC(=O)CC[C@H](NC(=O)CC[C@H](NC(=O)CCCCCCCCCCCCCCCCCCC(=O)O)C(=O)O)C(=O)O)C(=O)N[C@@H](CC(N)=O)C(=O)N[C@@H]([C@@H](C)O)C(=O)N[C@@H](C)C(=O)N[C@@H]([C@@H](C)O)C(=O)N1)[C@@H](C)O)C(=O)N1CCC[C@H]1C(=O)N[C@@H](CO)C(=O)N[C@@H](CO)C(=O)N[C@H](C(=O)N[C@@H](CC(N)=O)C(=O)N[C@H](C(=O)NCC(=O)N[C@@H](CO)C(=O)N[C@@H](CC(N)=O)C(=O)N[C@H](C(=O)N[C@@H](Cc1ccc(O)cc1)C(N)=O)[C@@H](C)O)C(C)C)[C@@H](C)O
notes: also called compound 15
B3: N^α1-[(4S)-4-carboxy-4-(19-carboxynonadecanoylamino)butanoyl]-[Arg17,Pro21,Pro27,Arg34]-h-amylin (peptide)
peptide: KCNTATCATQRLANFLRHSSPNFGAIPSSTNVGRNTY
modifications: C20 diacid-gGlu on alpha amino group of N-terminal Lys 1; disulfide Cys2-Cys7; C-terminal amide (as human amylin)
notes: also called compound 39
B4: N^α1-[(4S)-4-carboxy-4-(19-carboxynonadecanoylamino)butanoyl]-[Arg17,Pro21,Pro27,Pro31,Glu35]-h-amylin (peptide)
peptide: {C20 diacid-γGlu}-KCNTATCATQRLANFLRHSSPNFGAIPSSTPVGSETY-NH2
modifications: disulfide 2-7
SMILES: CC[C@H](C)[C@H](NC(=O)[C@H](C)NC(=O)CNC(=O)[C@H](Cc1ccccc1)NC(=O)[C@H](CC(N)=O)NC(=O)[C@@H]1CCCN1C(=O)[C@H](CO)NC(=O)[C@H](CO)NC(=O)[C@H](Cc1c[nH]cn1)NC(=O)[C@H](CCCNC(=N)N)NC(=O)[C@H](CC(C)C)NC(=O)[C@H](Cc1ccccc1)NC(=O)[C@H](CC(N)=O)NC(=O)[C@H](C)NC(=O)[C@H](CC(C)C)NC(=O)[C@H](CCCNC(=N)N)NC(=O)[C@H](CCC(N)=O)NC(=O)[C@@H](NC(=O)[C@H](C)NC(=O)[C@@H]1CSSC[C@H](NC(=O)[C@H](CCCCN)NC(=O)CC[C@H](NC(=O)CCCCCCCCCCCCCCCCCCC(=O)O)C(=O)O)C(=O)N[C@@H](CC(N)=O)C(=O)N[C@@H]([C@@H](C)O)C(=O)N[C@@H](C)C(=O)N[C@@H]([C@@H](C)O)C(=O)N1)[C@@H](C)O)C(=O)N1CCC[C@H]1C(=O)N[C@@H](CO)C(=O)N[C@@H](CO)C(=O)N[C@H](C(=O)N1CCC[C@H]1C(=O)N[C@H](C(=O)NCC(=O)N[C@@H](CO)C(=O)N[C@@H](CCC(=O)O)C(=O)N[C@H](C(=O)N[C@@H](Cc1ccc(O)cc1)C(N)=O)[C@@H](C)O)C(C)C)[C@@H](C)O
notes: also called compound 28
B5: N^α1-[2-[2-[2-[[2-[2-[2-[[(4S)-4-carboxy-4-(19-carboxynonadecanoylamino)butanoyl]amino]ethoxy]ethoxy]acetyl]amino]ethoxy]ethoxy]acetyl]-[Glu14,Arg17,Pro21,Pro27 … (peptide)
peptide: B3 peptide with N14E, R34S
modifications: C20 diacid-gGlu-2xOEG on alpha amino group of N-terminal Lys 1; disulfide Cys2-Cys7; C-terminal amide (as human amylin)
notes: also called compound 19

Biological target: T1, human calcitonin receptor (human, UniProt P30988 25-474)
T1 construct: whole, on cells; Used as cell membranes prepared from the transfected BHK cells (Assay VII), not as intact cells; also called hCTR; hCT
T1 sequence (looked up): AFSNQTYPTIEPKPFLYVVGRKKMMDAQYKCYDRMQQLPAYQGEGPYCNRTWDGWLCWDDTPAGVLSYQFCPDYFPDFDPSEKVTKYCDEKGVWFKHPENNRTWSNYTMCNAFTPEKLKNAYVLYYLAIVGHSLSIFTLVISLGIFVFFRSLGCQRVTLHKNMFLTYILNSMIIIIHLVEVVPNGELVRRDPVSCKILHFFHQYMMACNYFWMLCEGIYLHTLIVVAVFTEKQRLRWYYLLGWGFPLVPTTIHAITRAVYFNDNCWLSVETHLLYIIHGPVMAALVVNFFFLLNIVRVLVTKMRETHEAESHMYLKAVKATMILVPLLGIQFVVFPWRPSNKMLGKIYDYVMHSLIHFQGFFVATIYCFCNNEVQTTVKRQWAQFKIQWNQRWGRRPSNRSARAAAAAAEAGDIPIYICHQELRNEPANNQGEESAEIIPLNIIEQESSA
Experiment: SPA competition against 125I-calcitonin, membranes with human calcitonin receptor (Assay VII)
Procedure, shortened: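 BHK hCTR membranes 35 ng/μL + SPA beads 0.05 mg/well; buffer 50 mM Hepes pH 7.4, 1 mM CaCl2, 5 mM MgCl₂, 0.1% OA, 0.02% Tween20. 120 min, 25° C., shaking. Scintillation count; IC50 by one-site binding competition.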

Binder | IC50 [nM]
B1 | 30.9

Biological target: T2, human calcitonin receptor (human, UniProt P30988 25-474)
T2 construct: whole, on cells; also called hCTR; hCT
T2 sequence (looked up): T1 sequence (looked up)
Experiment: SPA competition with 125I-calcitonin, membranes of BHK hCTR cells (Assay VII)
Method: Membranes were prepared in the following way; the cells were rinsed with PBS and incubated with Versene for approximately 5 min before harvesting. The cells were flushed with PBS and the cell-suspension was centrifuged for 5 min at 1000 rpm. Cells were homogenized (Ultrathurrax) in a buffer containing 20 mM Na-HEPES and 10 mM EDTA (pH 7.4) and centrifuged at 20.000 rpm for 15 min. The resulting pellet was resuspended, homogenized and centrifuged (20.000 rpm, 15 min) in a buffer containing 20 mM Na-HEPES and 0.1 mM EDTA (pH 7.4, buffer 2). The resulting pellet was resuspended in buffer 2 and protein concentration was measured (BCA protein Assay, Pierce). The homogenate was kept cold during the whole procedure. The membranes were kept at −80° C. until use. Assay was performed in a 384 well Optiplate (PerkinElmer) in a total volume of 40 ul. Membranes were mixed with SPA beads. Final concentration of membranes 35 ng/μL final and Final concentration of SPA beads was 0.05 mg/well. Test-compounds were dissolved in DMSO and further diluted in assay buffer (50 mM Hepes, pH 7.4, 1 mM CaCl2, 5 mM MgCl₂, 0.1% OA and 0.02% Tween20). […] The final mixture was incubated for 120 min with shaking at 400 rpm at 25° C. prior to centrifugation (1500 rpm, 10 min). Samples were analyzed on TopCounter™ (Packard). The […] was calculated using (one site binding competition analysis) GraphPad Prism5 as a measure of receptor affinity.

Binder | IC50 [nM]
B2 | 15.5
B3 | 19.3
B4 | 12.5
B5 | 20.4
